B1: PRPH (parent)
chain: RTFGPPPSLSPGAFSYSSSSRFSS
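Further: lentivirally expressed fusions sorted by FACS into six bins by GFP to DsRed ratio, PSI derived from sequencing read proportions per bin multiplied by bin number.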

The variants in the data set derive from B1. Put plainly: protein stability index of a GFP-peptide fusion (GPS, HEK-293T) (PSI 1-6); higher = more stable. The note with it: c terminus: a fixed tail appended.
RTFGVPPSLSPGAFSYSSSSRFSS [P5V]: the protein stability index is 2.89.
Consider RTFGWPPSLSPGAFSYSSSSRFSS [P5W], for which the protein stability index is 2.21.
As to RTFGQPPSLSPGAFSYSSSSRFSS [P5Q], the protein stability index is 2.6.
Consider RTFGTPPSLSPGAFSYSSSSRFSS [P5T], for which the protein stability index worked out at 3.29.
Next, RTFGGPPSLSPGAFSYSSSSRFSS [P5G]: 2.84; RTFGDPPSLSPGAFSYSSSSRFSS [P5D]: 3.35; RTFGLPPSLSPGAFSYSSSSRFSS [P5L]: 2.07.
Consider RTFGKPPSLSPGAFSYSSSSRFSS [P5K], for which the protein stability index was found to be 2.99.
As for RTFGYPPSLSPGAFSYSSSSRFSS [P5Y], the protein stability index was 2.65.
The same measure for RTFGIPPSLSPGAFSYSSSSRFSS [P5I]: 2.5; for RTFGHPPSLSPGAFSYSSSSRFSS [P5H]: 2.81.
As for RTFGNPPSLSPGAFSYSSSSRFSS [P5N], the protein stability index was found to be 3.55.
For RTFGPIPSLSPGAFSYSSSSRFSS [P6I], the protein stability index worked out at 2.9.
Next, RTFGPFPSLSPGAFSYSSSSRFSS [P6F]: 2.15; RTFGPGPSLSPGAFSYSSSSRFSS [P6G]: 3.02; RTFGPCPSLSPGAFSYSSSSRFSS [P6C]: 2.09.
RTFGPSPSLSPGAFSYSSSSRFSS [P6S]: the protein stability index turned out to be 3.37.
Consider RTFGPMPSLSPGAFSYSSSSRFSS [P6M], for which the protein stability index stood at 2.8.
The same measure for RTFGPRPSLSPGAFSYSSSSRFSS [P6R]: 3.02; for RTFGPDPSLSPGAFSYSSSSRFSS [P6D]: 2.86; for RTFGPTPSLSPGAFSYSSSSRFSS [P6T]: 2.71.
As for RTFGPWPSLSPGAFSYSSSSRFSS [P6W], the protein stability index worked out at 2.01.
On to RTFGPYPSLSPGAFSYSSSSRFSS [P6Y], for which the protein stability index worked out at 2.11.
With RTFGPKPSLSPGAFSYSSSSRFSS [P6K], the protein stability index amounted to 3.25.
The same measure for RTFGPHPSLSPGAFSYSSSSRFSS [P6H]: 2.79.
On to RTFGPEPSLSPGAFSYSSSSRFSS [P6E], for which the protein stability index was found to be 2.83.
Turning to RTFGPVPSLSPGAFSYSSSSRFSS [P6V], the protein stability index came to 3.05.
Turning to RTFGPNPSLSPGAFSYSSSSRFSS [P6N], the protein stability index was found to be 3.1.
As to RTFGPLPSLSPGAFSYSSSSRFSS [P6L], the protein stability index came out at 2.95.
With RTFGPQPSLSPGAFSYSSSSRFSS [P6Q], the protein stability index is 3.03.
Regarding RTFGPAPSLSPGAFSYSSSSRFSS [P6A], the protein stability index amounted to 2.76.
Consider RTFGPPPSLSPDAFSYSSSSRFSS [G12D], for which the protein stability index was 3.24.
As to RTFGPPPSLSPCAFSYSSSSRFSS [G12C], the protein stability index is 1.96.
Turning to WTFGPPPSLSPGAFSYSSSSRFSS [R1W], the protein stability index came to 2.81.
In the case of HTFGPPPSLSPGAFSYSSSSRFSS [R1H], the protein stability index is 3.24.
On to CTFGPPPSLSPGAFSYSSSSRFSS [R1C], for which the protein stability index is 2.59.
On to ATFGPPPSLSPGAFSYSSSSRFSS [R1A], for which the protein stability index came to 3.18.
Consider FTFGPPPSLSPGAFSYSSSSRFSS [R1F], for which the protein stability index was determined as 2.52.
With ETFGPPPSLSPGAFSYSSSSRFSS [R1E], the protein stability index stood at 3.09.
Regarding YTFGPPPSLSPGAFSYSSSSRFSS [R1Y], the protein stability index was found to be 2.4.
Next, DTFGPPPSLSPGAFSYSSSSRFSS [R1D]: 3.29.
Next, TTFGPPPSLSPGAFSYSSSSRFSS [R1T]: 2.63.
Take GTFGPPPSLSPGAFSYSSSSRFSS [R1G]: the protein stability index came to 3.25.
As to KTFGPPPSLSPGAFSYSSSSRFSS [R1K], the protein stability index amounted to 2.74.
Next, STFGPPPSLSPGAFSYSSSSRFSS [R1S]: 3.01.
For MTFGPPPSLSPGAFSYSSSSRFSS [R1M], the protein stability index amounted to 2.29.
As for ITFGPPPSLSPGAFSYSSSSRFSS [R1I], the protein stability index is 2.41.
Next, NTFGPPPSLSPGAFSYSSSSRFSS [R1N]: 3.7; QTFGPPPSLSPGAFSYSSSSRFSS [R1Q]: 3.62; VTFGPPPSLSPGAFSYSSSSRFSS [R1V]: 1.97.
With RTFGPPPCLSPGAFSYSSSSRFSS [S8C], the protein stability index amounted to 3.04.
RTFGPPPILSPGAFSYSSSSRFSS [S8I]: the protein stability index is 2.78.
As to RTFGPPPNLSPGAFSYSSSSRFSS [S8N], the protein stability index worked out at 3.5.
With RTFGPPPGLSPGAFSYSSSSRFSS [S8G], the protein stability index is 2.68.
With RTFGPPPWLSPGAFSYSSSSRFSS [S8W], the protein stability index came out at 2.75.
On to RTFGPPPVLSPGAFSYSSSSRFSS [S8V], for which the protein stability index amounted to 2.59.
Consider RTFGPPPELSPGAFSYSSSSRFSS [S8E], for which the protein stability index is 3.49.
Take RTFGPPPDLSPGAFSYSSSSRFSS [S8D]: the protein stability index is 3.04.
Regarding RTFGPPPRLSPGAFSYSSSSRFSS [S8R], the protein stability index came out at 3.83.
Regarding RTFGPPPLLSPGAFSYSSSSRFSS [S8L], the protein stability index was determined as 3.14.
With RTFGPPPMLSPGAFSYSSSSRFSS [S8M], the protein stability index was found to be 2.93.
Turning to RTFGPPPKLSPGAFSYSSSSRFSS [S8K], the protein stability index was 2.58.
On to RKFGPPPSLSPGAFSYSSSSRFSS [T2K], for which the protein stability index was determined as 2.49.
For the variant RPFGPPPSLSPGAFSYSSSSRFSS [T2P], the protein stability index was determined as 3.08.
Next, RLFGPPPSLSPGAFSYSSSSRFSS [T2L]: 2.43.
Turning to RYFGPPPSLSPGAFSYSSSSRFSS [T2Y], the protein stability index is 2.31.
Consider RAFGPPPSLSPGAFSYSSSSRFSS [T2A], for which the protein stability index came to 2.95.
For the variant RMFGPPPSLSPGAFSYSSSSRFSS [T2M], the protein stability index is 2.52.
As to RIFGPPPSLSPGAFSYSSSSRFSS [T2I], the protein stability index was 2.97.
Consider RSFGPPPSLSPGAFSYSSSSRFSS [T2S], for which the protein stability index was found to be 3.73.
RHFGPPPSLSPGAFSYSSSSRFSS [T2H]: the protein stability index came to 3.17.
For RVFGPPPSLSPGAFSYSSSSRFSS [T2V], the protein stability index is 2.23.
For RCFGPPPSLSPGAFSYSSSSRFSS [T2C], the protein stability index worked out at 2.02.
Take RGFGPPPSLSPGAFSYSSSSRFSS [T2G]: the protein stability index was determined as 2.89.
Take RFFGPPPSLSPGAFSYSSSSRFSS [T2F]: the protein stability index is 2.46.
Next, RDFGPPPSLSPGAFSYSSSSRFSS [T2D]: 3.21.
Take RNFGPPPSLSPGAFSYSSSSRFSS [T2N]: the protein stability index worked out at 2.92.
On to RQFGPPPSLSPGAFSYSSSSRFSS [T2Q], for which the protein stability index was determined as 2.92.
Regarding RTFGPPPSNSPGAFSYSSSSRFSS [L9N], the protein stability index came to 3.42.
For RTFGPPPSYSPGAFSYSSSSRFSS [L9Y], the protein stability index was found to be 2.94.
Next, RTFGPPPSWSPGAFSYSSSSRFSS [L9W]: 3.09; RTFGPPPSKSPGAFSYSSSSRFSS [L9K]: 3.8.
Next, RTFGPPPSVSPGAFSYSSSSRFSS [L9V]: 3.31; RTFGPPPSDSPGAFSYSSSSRFSS [L9D]: 3.61.
As to RTFGPPPSCSPGAFSYSSSSRFSS [L9C], the protein stability index was 2.71.
As to RTFGPPPSASPGAFSYSSSSRFSS [L9A], the protein stability index is 3.52.
RTFGPPPSQSPGAFSYSSSSRFSS [L9Q]: the protein stability index came out at 3.76.
As to RTFGPPPSFSPGAFSYSSSSRFSS [L9F], the protein stability index was 3.39.
Turning to RTFGPPPSHSPGAFSYSSSSRFSS [L9H], the protein stability index turned out to be 3.54.
With RTFGPPPSTSPGAFSYSSSSRFSS [L9T], the protein stability index stood at 3.7.
The same measure for RTFGPPPSESPGAFSYSSSSRFSS [L9E]: 3.44; for RTFGPPPSGSPGAFSYSSSSRFSS [L9G]: 3.64; for RTFGPPPSRSPGAFSYSSSSRFSS [L9R]: 4.05.
RTFGPPPSSSPGAFSYSSSSRFSS [L9S]: the protein stability index turned out to be 3.8.

The values are drawn from the supplement of paper PMC10567573.
